Measurements from patent US7138236.

Test system: p53, unphosphorylated (recombinant full-length)

Substance: ATM (A-T mutated) protein purified from HeLa cell nuclear extract
- in vitro kinase assay (32P incorporation, autoradiography): several independently purified ATM preparations were consistently found to phosphorylate p53 with high efficiency
- phosphorylation site mapping (tryptic/Asp-N peptides, Edman degradation): the sites of phosphorylation correspond to p53 residues Ser-15 and Thr-18

Substance: ATR (FRP-1) purified from HeLa nuclear extract
- kinase assay of chromatographic fractions, Western blot with p53 Ser15-specific antibodies: this residue is also phosphorylated by a kinase activity associated with ATR
